From patent US20240132591A1 (PANDION OPERATIONS, published 2024)
Where “and” joins values, the source holds several entries; their conditions need not be identical. Identical values can stand only once.

Columns and labels:
[1] = target: T1, Human MAdCAM (human, UniProt Q13477 19-317, limits assumed); test: BLI Octet, AHC capture
T1 construct: also called huMAdCAM; human MAdCAM-1
T1 sequence (looked up): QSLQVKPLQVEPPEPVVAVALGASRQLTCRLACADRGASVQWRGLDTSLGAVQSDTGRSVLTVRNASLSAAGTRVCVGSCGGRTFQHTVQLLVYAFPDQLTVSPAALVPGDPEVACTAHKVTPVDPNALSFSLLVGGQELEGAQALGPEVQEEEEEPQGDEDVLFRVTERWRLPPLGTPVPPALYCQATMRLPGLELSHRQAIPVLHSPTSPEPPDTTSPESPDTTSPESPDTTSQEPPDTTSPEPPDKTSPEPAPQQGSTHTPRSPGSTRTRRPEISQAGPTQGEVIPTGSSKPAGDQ

[2] = target: T2, cyno MAdCAM (cyno); test: BLI Octet, AHC capture
T2 construct: also called cynomolgus monkey MAdCAM-1

[3] = target: T3, Insulin (UniProt P01308 25-54; P01308 90-110); test: ELISA on insulin-coated plate
T3 construct: Polyreactivity antigen; mature insulin has A and B chains; also called human insulin

Kd [1]: 266 nM and 340 nM
fold lower affinity than PRNT1 [1]: 10 fold
koff [1]: 0.0738 s⁻¹
kon [1]: 278000 M⁻¹ s⁻¹
Kd [2]: 153 nM
binding result [3]: no binding (tested: 100 nM)
B1: MIAB169 (antibody, human IgG1, kappa)
heavy: EVQLLESGGGLVQPGGSLRLSCAASGFTFSDFWMHWVRQAPGKGLEWISYISGDSGYTNYADSVKGRFTISRDNSKNTLYLQMNSLRAEDTAVYYCARDRPYYYIMDVWGKGTTVTVSSASTKGPSVFPLAPSSKSTSGGTAALGCLVKDYFPEPVTVSWNSGALTSGVHTFPAVLQSSGLYSLSSVVTVPSSSLGTQTYICNVNHKPSNTKVDKKVEPKSCDKTHTCPPCPAPEAAGAPSVFLFPPKPKDTLMISRTPEVTCVVVDVSHEDPEVKFNWYVDGVEVHNAKTKPREEQYNSTYRVVSVLTVLHQDWLNGKEYKCKVSNKALPAPIEKTISKAKGQPREPQVYTLPPSREEMTKNQVSLTCLVKGFYPSDIAVEWESNGQPENNYKTTPPVLDSDGSFFLYSKLTVDKSRWQQGNVFSCSVMHEALHNHYTQKSLSLSPGGGGGSAPTSSSTKKTQLQLEHLLLDLQMILNGINNYKNPKLTRMLTFKFYMPKKATELKHLQCLEEELKPLEEALNLAPSKNFHLRPRDLISDINVIVLELKGSETTFMCEYADETATIVEFINRWITFSQSIISTLT
light: DIQMTQSPSSLSASVGDRVTITCRASQSVSRSLAWYQQKPGKAPKLLIYAASSLQSGVPSRFSGSGSGTDFTLTISSLQPEDFATYYCQQYKSYPVTFGQGTKVEIKRTVAAPSVFIFPPSDEQLKSGTASVVCLLNNFYPREAKVQWKVDNALQSGNSQESVTEQDSKDSTYSLSSTLTLSKADYEKHKVYACEVTHQGLSSPVTKSFNRGEC
notes: Y105I variant; also called MIAB169-CHO; MIAB169-HEK
